Assay results: publication PMC9731866, “Structures of a constitutively active mutant of human IDH3 reveal new insights into the mechanisms of allosteric activation and the catalytic reaction” (The Journal of Biological Chemistry, 2022)

How the values were obtained:
[1] = biological target: αMβαMγ heterotetramer of HsIDH3 (α-Q139A in both heterodimers) (human) (UniProt P50213); experiment: SEC-MALS; low concentration (1 mg/ml); Superdex 200 10/300 GL, 24 °C, 10 mM Hepes pH 7.4, 200 mM NaCl, 5 mM β-ME; N counts the units (heterodimers or heterotetramers) in the oligomer
[2] = biological target: αMβαMγ heterotetramer of HsIDH3 (α-Q139A in both heterodimers) (human) (UniProt P50213); experiment: SEC-MALS; high concentration (10 mg/ml); Superdex 200 10/300 GL, 24 °C, 10 mM Hepes pH 7.4, 200 mM NaCl, 5 mM β-ME; N counts the units (heterodimers or heterotetramers) in the oligomer
[3] = biological target: αMβ heterodimer of HsIDH3 (α-Q139A with β) (human) (UniProt P50213); experiment: SEC-MALS; low concentration (1 mg/ml); Superdex 200 10/300 GL, 24 °C, 10 mM Hepes pH 7.4, 200 mM NaCl, 5 mM β-ME; N counts the units (heterodimers or heterotetramers) in the oligomer
[4] = biological target: αMβ heterodimer of HsIDH3 (α-Q139A with β) (human) (UniProt P50213); experiment: SEC-MALS; high concentration (10 mg/ml); Superdex 200 10/300 GL, 24 °C, 10 mM Hepes pH 7.4, 200 mM NaCl, 5 mM β-ME; N counts the units (heterodimers or heterotetramers) in the oligomer

| stoichiometry N [1] | stoichiometry N [2] | stoichiometry N [3] | stoichiometry N [4] | Substance |
| --- | --- | --- | --- | --- |
| 2 | 2 | – | – | αMβαMγ heterotetramer of HsIDH3 (α-Q139A in both heterodimers) (from UniProt P50213 28-366; O43837 35-360; P51553 40-393) (complex) |
| – | – | 2 | 2 | αMβ heterodimer of HsIDH3 (α-Q139A with β) (from UniProt P50213 28-366; O43837 35-360) (complex) |
